Laboratory results: US20230235047A1 (Innovent, published 2023)

Molecular target: T1, human Claudin18.2 protein (P50251802, GenScript) (human, UniProt P56856-2 1-261, limits assumed)
T1 construct: also called human CLDN18.2
Assay: SPR (Biacore T200), human Claudin18.2 amine-coupled to the chip, antibody 0-100 nM in the mobile phase, 1:1 model
Description: According to the manufacturer's instructions, human Claudin18.2 (GenScrip, P50251802) was coupled to the surface of a CMS chip (GE Healthcare, 29-1496-03) using the amino coupling kit (GE Healthcare, BR-1006-33), and the remaining activation sites were blocked by injection of 1 M ethanolamine after coupling. According to the manufacturer's instructions, the binding and dissociation between the antigen on the chip surface and antibodies in the mobile phase were determined by Biacore (GE Healthcare, T200) to obtain affinity and kinetic constants. The antibodies (0-100 nM) after gradient dilution flowed over the chip surface in an order from low to high concentrations, with the binding time of 180 s and the dissociation time of 600 s. Finally, the chip was regenerated using 10 mM Glycine pH 1.5 (GE Healthcare, BR-1003-54). Kinetic analysis of the data results were performed using Biacore T200 analysis software with a 1:1 binding model.

Row | Binder | Kd [nM] | koff [s⁻¹] | kon [M⁻¹ s⁻¹]
1 | Hz38F8 (antibody, human IgG1, kappa, V domains shown) VH: EVQLVESGGGLVQPGGSLRLSCAASGFSFSDYGMHWVRQAPGKGLEWVSYINSGSRTLYYADTVKGRFTISRDNAKNSLYLQMNSLRDEDTAVYYCARNAYYGNAMDYWGQGTLVTVSS VL: DIVMTQSPDSLAVSLGERATINCKSSQSLLNSGNQRNYLTWYQQKPGQPPKLLIYWSSTRGSGVPDRFSGSGSGTDFTLTISSLQAEDVAVYYCQNVYYYPFTFGQGTRLEIKR | 0.314 | 9.97e-05 | 318000
2 | Hz14A5 (antibody, human IgG1, kappa, V domains shown) VH: QVQLQESGPGLVKPSETLSLTCTVSGFSLNSYGVGWIRQPPGKGLEWIGVIWGDVSTNYHSVLISRVTISKDTSKNQVSLKLSSVTAADTAVYYCARITRGNAMDYWGQGTLVTVSS VL: DIVMTQSPDSLAVSLGERATINCKSSQSLLNSGNQRNYLTWYQQKPGQPPKLLIYWASTRKSGVPDRFSGSGSGTDFTLTISSLQAEDVAVYYCQNNYLFPLTFGGGTKVEIKR | 0.49 | 0.000208 | 424000
3 | Hz3G3 (antibody, human IgG1, kappa, V domains shown) VH: QVQLVQSGAEVKKPGASVKVSCKASGYSFTTYWMHWVRQAPGQGLEWMGLIDPSDSETRLNQKFKDRVTMTVDTSTSTVYMELSSLRSEDTAVYYCASNRWLLGWGQGTLVTVSS VL: DIVMTQSPDSLAVSLGERATINCKSSQSLLNSGNQKNYLTWYQQKPGQPPKLLIYWASTRESGVPDRFSGSGSGTDFTLTISSLQAEDVAVYYCQNDYSYPLTFGQGTKLEIKR | 14.2 | 0.000799 | 56500
4 | Hz25C7 (antibody, human IgG1, kappa, V domains shown) VH: EVQLVESGGGLVQPGGSLRLSCAASGFTFSDYGMAWVRQAPGKGLEWVAFINNLAYSIYYVDTVTGRFTISRDNAKNSLYLQMNSLRAEDTAVYYCARFTTGNVMDYWGQGTLVTVSS VL: DIVMTQSPDSLAVSLGERATINCKSSQSLLQGGNQKNYLTWYQQKPGQPPKLLIYWSSTRESGVPDRFSGSGSGTDFTLTISSLQAEDVAVYYCQNSYSYPLTFGGGTKVEIKR | 9.84 | 0.00114 | 116000
5 | Hz46F6 (antibody, human IgG1, kappa, V domains shown) VH: QVQLQESGPGLVKPSETLSLTCTVSGFSLTDYGVSWIRQPPGKGLEWIGVMWGGGNTYYNSALKSRVTISVDTSKNQFSLKLSSVTAADTAVYYCARQRYGGNAMDYWGQGTLVTVSS VL: DIVMTQSPDSLAVSLGERATINCKSSQSLLNSGNQRNYLTWYQQKPGQPPKLLIYWASTRESGVPDRFSGSGSGTDFTLTISSLQAEDVAVYYCQNSYFYPFTFGGGTKVEIKR | 1.03 | 0.00015 | 147000
6 | Hz59C1 (antibody, human IgG1, kappa, V domains shown) VH: QVQLQESGPGLVKPSETLSLTCTVSGYSITSGYGWNWIRQPPGKGLEWIGYIHFSGSTNYNPSLKSRVTISVDTSKNQFSLKLSSVTAADTAVYYCARSGKGNAMDYWGQGTLVTVSS VL: DIVMTQSPDSLAVSLGERATINCKSSQSLLNSGNQKNYLTWYQQKPGQPPKLLIYWASTRESGVPDRFSGSGSGTDFTLTISSLQAEDVAVYYCQNDYYFPFTFGGGTKVEIKR | 1.75 | 0.000433 | 248000
7 | Hz51H10 (antibody, human IgG1, kappa, V domains shown) VH: QVQLVQSGAEVKKPGASVKVSCKASGYTFTKYIIQWVRQAPGQRLEWMGYINPYNDDTKYNEKFKGRVTITRDTSASTAYMELSSLRSEDMAVYYCARTYYGNSFPNWGQGTLVTVSS VL: not shown | 1.94 | 0.000631 | 325000

Molecular target: T2, human CLDN18.1 on cells (CHO-hCLDN18.1) (human, UniProt P56856 1-261)
T2 construct: whole, on cells; also called human Claudin18.1
Assay: flow cytometry, hybridoma supernatant on CHO-hCLDN18.1

Row | Binder | binding result
8 | 38F8 (antibody secreted by the hybridoma, culture supernatant) (antibody, V domains shown) VH: EVQLVESGGGLVKPGGSLKLSCAASGFSFSDYGMHWVRQAPEKGLEWIAYINSGSRTLYYADTVKGRFTISRDNAKNTLFLQMTSLRSEETAMYYCTRNAYYGNAMDYWGQGTSVTVSS VL: DIQMTQSPSSLTVTAGEKVTMSCKSSQSLLNSGNQRNYLTWYQQIPGQPPKLLIYWSSTRGSGVPDRFTGSGSGTDFTLTISSVQAEDLAVYFCQNVYYYPFTFGSGTRLEVK | no binding
9 | HB37A6 (antibody secreted by the hybridoma, culture supernatant) (antibody, V domains shown) VH: EVQLLDSGGGLVQPGGSLRLSCAASGFTFSSYVMSWVRQAPGKGLNWVSTISHSGGSTYYADSVKGRFTISRDNSKNTLYLQMNSLRAEDTAVYYCAIDAPYYDILTGYRYWGQGTLVTVSS VL: not shown | no binding
10 | 59C1 (antibody secreted by the hybridoma, culture supernatant) (antibody, V domains shown) VH: QVQLKESGPDLVKPSQSLSLTCTVTGYSITSGYGWNWIRQFPGNKLEWMGYIHFSGSTNYNPSLKSRISITRDTSKNQFFLQLNSVTTEDTATYYCARSGKGNAMDYWGQGTSVTVSS VL: DIQMTQSPSSLTVTAGEKVTMSCKSSQSLLNSGNQKNYLTWYQQKPGQPPKLLIYWASTRESGVPDRFTGSGSGTDFTLTVINMQAEDLALYYCQNDYYFPFTFGSGTKLEIK | no binding
11 | 3G3 (antibody secreted by the hybridoma, culture supernatant) (antibody, V domains shown) VH: QVQLQQSGPQLVRPGASVKISCKASGYSFTTYWMHWVKQRPGQGLEWIGLIDPSDSETRLNQKFKDKATLTVDKSSSTAYMRLSSPTSEDSAVYYCASNRWLLGWGQGTLVTVSS VL: DIQMIQSPSSLTVTAGEKVTMSCKSSQSLLNSGNQKNYLTWYQQKPGQPPKLLIYWASTRESGVPDRFTGSGSGTDFTLTISSVQTEDLAVYYCQNDYSYPLTFGAGTKLEIK | no binding
12 | 25C7 (antibody secreted by the hybridoma, culture supernatant) (antibody, V domains shown) VH: EVMLVESGGGLVQPGGSRKLSCAASGFTFSDYGMAWVRQAPGKGPEWVAFINNLAYSIYYVDTVTGRFTISRENAKDTLYLEMSSLRSEDTALYYCARFTTGNVMDYWGQGTSVTVSS VL: DIVMTQSPSSLTVTAGEKVTMTCKSSQSLLNGGNQKNYLTWYQQKPGQPPKLLIYWSSTRESGVPDRFTGSGSGTDFTLTITSVQAEDLAVYYCQNSYSYPLTFGSGTKLELK | no binding
13 | 69H9 (antibody secreted by the hybridoma, culture supernatant) (antibody, V domains shown) VH: EVQLQQSGPELMKPGASVKISCKATGYSFSSYNIHWVKQSHGKSLEWIGYIAPFNGDSRYNQKFKGKATVTVDKSSSTAYMHLSSLTSEDSAVYYCGRLNRGNSLDYWGQGTSLTVSS VL: DIVMTQSPSSLTVTAGEKVTMSCKSSQSLFNSGNQRNYLTWYQQKPGQPPKLLIYWASTRESGVPDRFTGSGSGTDFTLTISSVQAEDLAFYYCQNNYIYPLTFGAGTKLELK | no binding
14 | 46F6 (antibody secreted by the hybridoma, culture supernatant) (antibody, V domains shown) VH: QVQLKESGPGLVAPSQSLSITCTVSGFSLTDYGVSWIRQPPGKGLEWLGVMWGGGNTYYNSALKSRLSISKDNSKSQVFLKMNSLQSDDTAMYYCAKQRYGGNAMDYWGQGTSVTVSS VL: DIQMTQSPSSLTVTAGEKVTMSCKSSQSLLNSGNQRNYLTWYQQIPGQPPKLLIYWASTRESGVPNRFTGSGSGAEFTLTISSVQTEDLAVYYCQNSYFYPFTFGAGTKLELK | no binding
15 | 51H10 (antibody secreted by the hybridoma, culture supernatant) (antibody, V domains shown) VH: EVQLQQSVPELVKPGASVRMSCKASGYTFTKYIIQWVKQKPGQGLEWIAYINPYNDDTKYNEKFKGKATLTSDKSASTAYMELSSLTSEDSAVYYCATTYYGNSFPNWGQGTLVTVSA VL: DIVMTQSPSSLTVTAGERVTMTCKSSQSLLNSGNQKNYLTWYQQKPGQPPKLLIYWASTRESGVPDRFTGSGSGTDFTLTISSLQSEDLAVYFCQNDYSFPFTFGSGTKLEIK | no binding
16 | 14A5 (antibody secreted by the hybridoma, culture supernatant) (antibody, V domains shown) VH: QVQLKESGPGLVAPSQSLSITCSVSGFSLNSYGVGWVRQPPGKGLEWLGVIWGDGSTNYHSVLISRLSIRKDNSKSQVFLKLNSLQTDDTATYYCAMITRGNAMDYWGQGTSVTVSS VL: DIVMTQSPSSLTVTAGEKITMSCKSSQSLLNSGNQRNYLTWYQQKPGQTPKLLIYWASTRKSGVPDRFTGSGSGTDFTLTISSVQAEDLAVYSCQNNYLFPLTFGAGTKLELK | no binding
